Tests used:
Experiment in all cases: fluorescence polarisation
[1] = molecular target: TAMRA-labeled SARS-CoV-2 nsp1 C-K (wild type) (SARS-CoV-2) (UniProt P0DTD1)
[2] = molecular target: TAMRA-labeled SARS-CoV-2 nsp1 R124A/K125A (SARS-CoV-2) (UniProt P0DTD1)
[3] = molecular target: TAMRA-labeled SARS-CoV-2 nsp1 R99A (SARS-CoV-2) (UniProt P0DTD1)

Substance: purified ribosomes (crude 80S from HeLa cell lysate) (complex)
- Kd [1]: 29.4 nM
- fold increase in KD against WT nsp1 [2]: 2.2 fold
- fold increase in KD against WT nsp1 [3]: 1.8 fold
